Laboratory results taken from US5512455A, “Atrial natriuretic peptide receptor protein” (Scios Nova, Inc., priority 1987, dated 1996).
Ends that are not written are not given here.

Legend:
[1] = target: T1, purified bovine vascular ANP receptor protein (Bos taurus, UniProt P10730); test: Competitive binding of 125I-ANP(4-28) against ANP peptides to purified ANP receptor protein; conditions: for relative Ki value: purified bovine receptor, competition with 125I-ANP(4-28)
T1 construct: mature receptor protein is a 496 amino acid polypeptide, expressed as a propeptide; endogenous in cells; host or cells: bovine aortic smooth muscle (BASM) cells, cultured
T1 sequence (P10730 42-537): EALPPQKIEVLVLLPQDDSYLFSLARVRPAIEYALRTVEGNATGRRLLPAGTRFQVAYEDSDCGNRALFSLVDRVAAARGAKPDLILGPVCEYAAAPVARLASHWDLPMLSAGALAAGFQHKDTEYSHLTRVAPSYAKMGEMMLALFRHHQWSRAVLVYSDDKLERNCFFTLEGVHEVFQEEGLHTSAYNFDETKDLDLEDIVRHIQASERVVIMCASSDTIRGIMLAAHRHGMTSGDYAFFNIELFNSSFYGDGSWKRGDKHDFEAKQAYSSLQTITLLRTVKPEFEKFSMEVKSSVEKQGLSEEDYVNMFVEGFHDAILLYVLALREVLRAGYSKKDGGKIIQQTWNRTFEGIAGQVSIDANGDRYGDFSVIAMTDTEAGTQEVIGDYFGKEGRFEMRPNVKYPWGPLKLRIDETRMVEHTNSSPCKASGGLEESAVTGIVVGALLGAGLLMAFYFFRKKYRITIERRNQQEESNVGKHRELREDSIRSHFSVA
Experimental: To characterize the purified native bovine vascular ANP receptor protein further, its activity as a receptor in vitro was studied. The following ANP peptides, described in Schenk et al. (II), supra, were employed; ANP(4-28), ANP(7-28), and ANP(5-25). Bmax, Ki and Kd were calculated by standard methods. See, e.g., Scatchard (1949) Ann. N.Y. Acad. Sci., pp. 600-672. […] This corresponds to a stoichiometry of ANP to receptor protein of 1:3/subunit, or 0.7:1/holoreceptor.
An affinity matrix was made by coupling 40 mg human ANP(4-28) to 4 ml of Affi-gel 10 (Bio-Rad) as described by the manufacturer. Solubilized ANP receptor was adjusted to 10 mM CaCl2 and MgCl2 and filtered through […] (type GE, Millipore). The filtrate was chromatographed on the ANP-agarose column at a flow rate of 0.5 ml/min at 21° C. The column was washed with binding buffer (100 mM Tris HCl, pH 7.50; 100 mM NaCl; 4 mg/ml C12 E8; 10 mM CaCl2; and 10 mM MgCl2) until the effluent reached A280 =0.000. Then 6.0 ml of elution buffer (10 mM Na acetate, pH 5.00:100 mM NaCl; 4 mg/ml C12 E8; 10 mM CaCl2; 10 mM MgCl2) was added and the eluent was placed on ice and immediately adjusted to 37% (v/v) acetone. The solution was centrifuged at 4,000×g for 10 min at 4° C. and thoroughly aspirated. The pellet was resuspended in 3.0 ml of binding buffer and analyzed for purity, receptor binding activity, and amino acid sequence.
The tested ANP peptide included hANP(4-28), hANP(7-28) and atriopeptin I. Gamma-melanocyte stimulating hormone ([…]) was employed as a negative control. […] This corresponds to a stoichiometry of ANP to receptor protein of 1:3 kd subunit, or 0.7:1.0/holoreceptor.
Additional studies were conducted with ANP peptides.

[2] = target: T2, ANP receptor (pANPRc-1/4) expressed in Xenopus oocytes (Bos taurus, UniProt P10730); test: ANP binding to recombinant ANP receptor (pANPRc-1/4) in solubilized membranes of mRNA-injected Xenopus oocytes; parameters: species or system bovine
T2 construct: contains a 2290 base pair DNA insert which includes the entire open reading frame; expressed in transfected cells; host or cells: Xenopus oocytes injected with synthetic RNA from pANPRc-1/4; solubilized crude membranes
T2 sequence (P10730 42-537): T1 sequence (P10730 42-537)
Experimental: The receptor coding sequence from pANPRc-1/4 was cloned into pGEM1 (ProMega, Madison, Wis.) and RNA prepared according to the supplier's instructions. Oocyte preparation and injection were performed essentially as described, Gurdon et al. (1983) Meth. Enzymol. 101:370-386. Typically, each oocyte was injected with 50 nl 50 ng synthetic RNA followed by incubation in modified Barth's saline at 21° C. for 48 hr. Crude membranes were prepared and solubilized in receptor binding buffer (2 mg/ml C12 E8, 100 mM NaCl, 10 mM MgCl2, 10 mM CaCl2 and 100 mM Tris:HCl; pH 7.5). Binding was measured after incubating 0.5 ml of membrane suspension containing 10 μg protein with 2×10^5 cpm of ^125 I! […] (1×10^3 cpm/fmol) and the indicated concentration of unlabeled ANP analog for 30 min at 21° C. Reactions were terminated and free peptide separated from bound by precipitation with acetone (40% v/v final). Counts bound in the absence of unlabeled ligand were 2048±374 cpm while nonspecific binding (counts bound in the presence of 20 nM rANP) were 592±89 cpm.
Only low level, nonspecific binding was detected in membranes of uninfected, or mock injected eggs. […] Both […] and the truncated analog […] for binding. The Ii apparent obtained from the experiment was 0.27 nM for both analogs.

Substance	Bmax for receptor binding ([1]; computer analysis of binding data, b45 adds '75% receptor activity') [nmol/mg protein]	Kd ([1]; computer analysis of binding data, purified receptor) [nM]	relative Ki value [1] [nM]	effect on binding of radiolabeled ANP ([2]; even at 100 μM)	competition for binding ([2]; solubilized oocyte membranes)
ANP(4-28): ANP peptide described in Schenk et al. (II) (RSSCFGGRMDRIGAQSGLGCNSFRY; ends and bridges not checked; cysteine pairing not given here; UniProt P01160 127-151, looked up, fragment)	5.7	0.3	0.3	–	–
ANP(5-25): ANP peptide described in Schenk et al. (II) (SSCFGGRMDRIGAQSGLGCNS; ends and bridges not checked; cysteine pairing not given here; UniProt P01160 128-148, looked up, fragment)	–	–	1.12	–	–
ANP(7-28): ANP peptide described in Schenk et al. (II) (CFGGRMDRIGAQSGLGCNSFRY; ends and bridges not checked; cysteine pairing not given here; UniProt P01160 130-151, looked up, fragment)	–	–	1.1	–	–
Bombesin: bombesin, an unrelated tetradecapeptide (Peninsula Labs)	–	–	–	no effect on binding	did not compete for binding
